Numbering of substitutions follows the chain as printed. Read-outs that look alike come from different tables or passages of the source. One block for each binder: values may come before it.
Key:
[1] = molecular target: T1, TGFβ3 (R&D Systems) (Homo sapiens (Human), UniProt P10600 301-412, Active TGFβ3 is a disulfide-linked homodimer of this chain; one copy is given.); assay: SPR
T1 construct: also called TGFB3
T1 sequence: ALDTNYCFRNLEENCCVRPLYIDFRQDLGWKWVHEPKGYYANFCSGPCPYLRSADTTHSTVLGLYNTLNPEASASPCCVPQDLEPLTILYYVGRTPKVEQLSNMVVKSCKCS

[2] = molecular target: TGFβ1 (R&D Systems); assay: cell-based or functional assay
[3] = molecular target: TGFβ1 (R&D Systems); assay: cell-based or functional assay; remark: listed apart in the source
[4] = molecular target: T1, TGFβ3 (R&D Systems); assay: cell-based or functional assay
[5] = molecular target: TGFβ1 (R&D Systems); assay: cell-based or functional assay; remark: listed apart in the source
[6] = molecular target: canine TGFβ1 (canine, UniProt P54831 279-390, limits assumed); assay: SPR, TGFβ on chip
Chain of canine TGFβ1 (P54831 279-390 limits assumed): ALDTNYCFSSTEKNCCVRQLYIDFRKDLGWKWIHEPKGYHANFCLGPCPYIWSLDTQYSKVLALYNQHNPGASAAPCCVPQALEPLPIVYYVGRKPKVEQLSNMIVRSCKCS
Description: (§1) To avoid affinity differences associated with differential surface preparation that can occur when immobilizing antibodies to surfaces, TGFβ1, TGFβ2, and TGFβ3 (R&D Systems) were directly conjugated to the individual surface. Immobilization was obtained by amine coupling […] using N-hydroxysuccinimide (NHS)/1-Ethyl-3-(3-dimethylaminopropyl) carbodiimide (EDC) chemistry. Chips were quenched with ethanolamine and the affinity with which all candidate mAbs bound to the immobilized TGFβ was evaluated. All curves were fit to a 1:1 model. Affinities <10⁻¹¹ are below the lower limit of quantitation of detection for the instrument.

[7] = molecular target: T2, canine TGFβ3 (canine, UniProt A0A8I3S1P1 346-457); assay: SPR, TGFβ on chip
T2 sequence: T1 sequence
Description: as §1

[8] = molecular target: T3, canine TGFβ2 (canine, UniProt A0A8I3PZZ6 331-442); assay: SPR, TGFβ on chip
T3 sequence: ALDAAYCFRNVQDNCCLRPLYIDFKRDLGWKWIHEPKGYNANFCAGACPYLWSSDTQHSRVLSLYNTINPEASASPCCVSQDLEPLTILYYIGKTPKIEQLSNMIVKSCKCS
Description: as §1

[9] = molecular target: T4, TGFβ1 (R&D Systems); assay: SPR full titration
T4 construct: also called TGFB1
T4 sequence (P01137 279-390): as the sequence (P54831 279-390 limits assumed) above

[10] = molecular target: T1, TGFβ3 (R&D Systems); assay: SPR full titration

B1: fel-TGFβ1-Spec (antibody)
heavy: DVQLVESGGDLVKPGGSLRLTCVASGFTFSSYGMHWVRQAPGKELEWVAVISYDGSIKYYADAVKGRFTISRDNAKNTLYLQMNSLKTEDTATYYCARTGEYSGYDTDPQYSWGQGTTVTVSSASTTAPSVFPLAPSCGTTSGATVALACLVLGYFPEPVTVSWNSGALTSGVHTFPAVLQASGLYSLSSMVTVPSSRWLSDTFTCNVAHPPSNTKVDKTVRKTDHPPGPKPCDCPKCPPPEAAGAPSIFIFPPKPKDTLSISRTPEVTCLVVDLGPDDSDVQITWFVDNTQVYTAKTSPREEQFNSTYRVVSVLPILHQDWLKGKEFKCKVNSKSLPSPIERTISKAKGQPHEPQVYVLPPAQEELSRNKVSVTCLIKSFHPPDIAVEWEITGQPEPENNYRTTPPQLDSDGTYFVYSKLSVDRSHWQRGNTYTCSVSHEALHSHHTQKSLTQSPGK
light: EIQMTQSPSSLSASPGDRVTITCRASQGIGDDLGWYQQKPGKVPKLLIYGTSTLQSGVPSRFSGSGSGTDFTLTISSLEPEDAATYYCLQDSNYPLTFGGGTKRSDAQPSVFLFQPSLDELHTGSASIVCILNDFYPKEVNVKWKVDGVVQNKGIQESTTEQNSKDSTYSLSSTLTMSSTEYQSHEKFSCEVTHKSLASTLVKSFQRSECQRE
notes: also called FelSL501-VH3-9/FelSL501-VL1-1
binding result [1]: no binding
CMVIC pSmad-3, IC50 [2]: 9.03 nM

B4: Can04H09 VH1/VL4 (antibody, V domains shown)
VH: EVQLVQSGAEVKKPGASVKVSCKTSGYTFISSWMNWVRQAPGAGLDWMGQIYPGDGDTNYNGKFKGRVTLTADTSTSTAYMELSSLRAGDIAVYYCARHYDGSTDYWGQGTLVTVSS
VL: EIVMTQSPASLSLSQGEKVTITCRASENIYSNLAWYQQRPGQAPKLLIYAATNLADGVPSRFSGSGSGTDFSLTISSLEPEDVAVYYCQHFWGTPYTFGQGTK
CMVIC pSmad-3, IC50 [3]: 0.88 nM
CMVIC pSmad-3, IC50 [4]: 136 nM
IC50 (read off the curve), inhibition of TGFβ1-induced SMAD3 signalling [panel TGFβ1] [5]: ~0.2 µg/mL
Kd [6]: 2.18 nM
Kd [7]: 4.78 nM
Kd [8]: 29.7 nM

Second part, the binder after the results:

binding result [1]: no binding
CMVIC pSmad-3, IC50 [2]: 11.9 nM
B2: fel-TGFβ1_hetero-chimera-2 (antibody)
heavy: EVQLVESGGGVVQPGRSLRLSCAASGFTFSSYGMHWVRQAPGKELEWVAVISYDGSIKYYADSVKGRFTISRDNSKNTLYLQMNSLRAEDTAVYYCARTGEYSGYDTDPQYSWGQGTTVTVSSASTTAPSVFPLAPSCGTTSGATVALACLVLGYFPEPVTVSWNSGALTSGVHTFPAVLQASGLYSLSSMVTVPSSRWLSDTFTCNVAHPPSNTKVDKTVRKTDHPPGPKPCDCPKCPPPEAAGAPSIFIFPPKPKDTLSISRTPEVTCLVVDLGPDDSDVQITWFVDNTQVYTAKTSPREEQFNSTYRVVSVLPILHQDWLKGKEFKCKVNSKSLPSPIERTISKAKGQPHEPQVYVLPPAQEELSRNKVSVTCLIKSFHPPDIAVEWEITGQPEPENNYRTTPPQLDSDGTYFVYSKLSVDRSHWQRGNTYTCSVSHEALHSHHTQKSLTQSPGK
light: B1 light

binding result [1]: no binding
CMVIC pSmad-3, IC50 [2]: 30.1 nM
B3: fel-TGFβ1_hetero-chimera-1 (antibody)
heavy: B1 heavy
light: B1 light with Q3V, M4L, P15V, V43A, K45I, S76N, E79Q, A83F

Kd [9]: 0.472 nM
binding result [10]: no binding
B5: chi SL501 (antibody)
heavy: EVQLVESGGGVVQPGRSLRLSCAASGFTFSSYGMHWVRQAPGKELEWVAVISYDGSIKYYADSVKGRFTISRDNSKNTLYLQMNSLRAEDTAVYYCARTGEYSGYDTDPQYSWGQGTTVTVSSASTTAPSVFPLAPSCGSTSGSTVALACLVSGYFPEPVTVSWNSGSLTSGVHTFPSVLQSSGLYSLSSMVTVPSSRWPSETFTCNVAHPASKTKVDKPVPKRENGRVPRPPDCPKCPAPEAAGAPSVFIFPPKPKDTLLIARTPEVTCVVVDLDPEDPEVQISWFVDGKQMQTAKTQPREEQFNGTYRVVSVLPIGHQDWLKGKQFTCKVNNKALPSPIERTISKARGQAHQPSVYVLPPSREELSKNTVSLTCLIKDFFPPDIDVEWQSNGQQEPESKYRTTPPQLDEDGSYFLYSKLSVDKSRWQRGDTFICAVMHEALHNHYTQESLSHSPGK
light: EIVLTQSPSSLSASVGDRVTITCRASQGIGDDLGWYQQKPGKAPILLIYGTSTLQSGVPSRFSGSGSGTDFTLTINSLQPEDFATYYCLQDSNYPLTFGGGTKRNDAQPAVYLFQPSPDQLHTGSASVVCLLNSFYPKDINVKWKVDGVIQDTGIQESVTEQDKDSTYSLSSTLTMSSTEYLSHELYSCEITHKSLPSTLIKSFQRSEC
notes: also called Chimera-SL501-VH/Chimera-SL501-VL
